Laboratory results reported in article PMC6004577.

Biological target: Acanthamoeba castellanii actin (amoeba actin), filaments (Acanthamoeba castellanii)

Sequence of mDelFCΔ20, mDelFC lacking the last 20 residues (Q0QWG9 805-1183, stated change not applied): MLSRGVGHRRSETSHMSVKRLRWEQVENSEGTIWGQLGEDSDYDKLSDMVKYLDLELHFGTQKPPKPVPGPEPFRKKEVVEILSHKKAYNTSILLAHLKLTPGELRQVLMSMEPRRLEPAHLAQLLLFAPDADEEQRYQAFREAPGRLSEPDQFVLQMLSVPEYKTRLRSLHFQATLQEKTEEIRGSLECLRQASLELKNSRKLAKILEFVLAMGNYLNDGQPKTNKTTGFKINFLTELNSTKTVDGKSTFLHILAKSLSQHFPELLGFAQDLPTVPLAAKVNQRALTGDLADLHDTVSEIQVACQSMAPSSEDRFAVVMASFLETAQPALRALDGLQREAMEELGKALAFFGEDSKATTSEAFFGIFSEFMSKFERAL

mDelFCΔ20, mDelFC lacking the last 20 residues (from UniProt Q0QWG9-2 626-1004) (domain or fragment)
inhibition of barbed-end elongation in seeded elongation assays: 7 nM
